Reference: patent publication EP4671273A1 (Anaveon AG, dated 2025)

How the values were obtained:
[1] = target: T1, cynomolgus PD-1 (#PD1-C52H5, AcroBiosystems) (cynomolgus monkey, UniProt B0LAJ3 25-170); test: SPR, PD-1 on captured IgG1
T1 construct: bought; also called cynomolgus monkey PD-1; not shown: the vendor's tag on the recombinant protein (AcroBiosystems #PD1-C52H5)

[2] = target: T2, human PD-1 (#PD1-H82E4, AcroBiosystems) (human, UniProt Q15116 25-167); test: SPR, PD-1 on captured IgG1
T2 construct: bought
T2 sequence (Q15116 25-167 limits assumed): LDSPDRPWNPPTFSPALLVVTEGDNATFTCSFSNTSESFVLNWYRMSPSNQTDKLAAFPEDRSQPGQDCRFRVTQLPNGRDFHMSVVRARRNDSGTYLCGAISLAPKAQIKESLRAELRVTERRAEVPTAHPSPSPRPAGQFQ

[3] = target: recombinant human IL-21 (rhIL-21) (human, UniProt Q9HBE4 30-162, limits assumed); test: cell-based or functional assay
Chain of recombinant human IL-21 (rhIL-21) (Q9HBE4 30-162 limits assumed): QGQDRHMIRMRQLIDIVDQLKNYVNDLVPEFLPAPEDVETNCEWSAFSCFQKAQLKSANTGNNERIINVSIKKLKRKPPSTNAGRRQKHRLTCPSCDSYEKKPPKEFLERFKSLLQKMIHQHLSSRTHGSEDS

T1 sequence (B0LAJ3 entry or part of it limits assumed, form in doubt): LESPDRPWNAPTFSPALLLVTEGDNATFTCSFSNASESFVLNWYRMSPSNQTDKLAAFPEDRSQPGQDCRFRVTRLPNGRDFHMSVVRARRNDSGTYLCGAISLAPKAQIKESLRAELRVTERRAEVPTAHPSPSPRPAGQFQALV

Row | Binder | Kd [1] [nM] | koff [1] [s⁻¹] | kon [1] [M⁻¹ s⁻¹] | Kd [2] [nM] | koff [2] [s⁻¹] | kon [2] [M⁻¹ s⁻¹] | % pSTAT3+ Jurkat cells, 0.1 nM rhIL-21 + 0 nM antibody [3] [%] | % pSTAT3+ Jurkat cells, 0.1 nM rhIL-21 + 0.1012 nM antibody [3] [%] | % pSTAT3+ Jurkat cells, 0.1 nM rhIL-21 + 0.1602 nM antibody [3] [%] | % pSTAT3+ Jurkat cells, 0.1 nM rhIL-21 + 0.2536 nM antibody [3] [%] | % pSTAT3+ Jurkat cells, 0.1 nM rhIL-21 + 0.4015 nM antibody [3] [%] | % pSTAT3+ Jurkat cells, 0.1 nM rhIL-21 + 0.6355 nM antibody [3] [%] | % pSTAT3+ Jurkat cells, 0.1 nM rhIL-21 + 1.006 nM antibody [3] [%] | % pSTAT3+ Jurkat cells, 0.1 nM rhIL-21 + 1.5925 nM antibody [3] [%] | % pSTAT3+ Jurkat cells, 0.1 nM rhIL-21 + 2.5209 nM antibody [3] [%] | % pSTAT3+ Jurkat cells, 0.1 nM rhIL-21 + 3.9906 nM antibody [3] [%] | % pSTAT3+ Jurkat cells, 0.1 nM rhIL-21 + 6.3171 nM antibody [3] [%] | % pSTAT3+ Jurkat cells, 0.1 nM rhIL-21 + 10 nM antibody [3] [%]
1 | BBJ602 (antibody, human IgG1, V domains shown, human IgG1) VH: VQLVQSGAEVKKPGASVKVSCKASGYTFTNFYIHWVRQAPGQGLEWMGSIYPNYGITAYNQKFKDRVTMTVDTSTSTAYMELRSLRSDDTAVYYCARGYSYGMDYWGQGTTVTVSS VL: DIQMTQSPSSVSASVGDRVTITCSASQGISGDLNWYQQKPGKAPKLLIYHTSQLHSDVPSRFSGSGSGTDFTLTISSLQPEDFATYYCQGYSKDLLTFGGGTKLEIK | 8.53 | 3.15 | 3.69e+08 | 18.1 | 0.0278 | 1.54e+06 | – | – | – | – | – | – | – | – | – | – | – | –
2 | DKR699 (antibody, human IgG1, V domains shown, human IgG1) VH: VQLVQSGAEVKKPGASVKVSCKASGYTFTNFYIHWVRQAPGQGLEWMGSIYPNYGDTAYNQKFKDRVTMTVDTSTSTAYMELRSLRSDDTAVYYCARGYSYAMDYWGQGTTVTVSS VL: DIQMTQSPSSVSASVGDRVTITCSASQGISGDLNWYQQKPGKAPKLLIYHTSQLHSDVPSRFSGSGSGTDFTLTISSLQPEDFATYYCQGYSKDLLTFGGGTKLEIK | 0.86 | 0.000203 | 236000 | 0.606 | 0.000121 | 200000 | – | – | – | – | – | – | – | – | – | – | – | –
3 | RZL961 (antibody, human IgG1, V domains shown, human IgG1) VH: VQLVQSGAEVKKPGASVKVSCKASGYTFTNFYIHWVRQAPGQGLEWMGSIYPQYGITAYNQKFKDRVTMTVDTSTSTAYMELRSLRSDDTAVYYCARGYSYAMDYWGQGTTVTVSS VL: DIQMTQSPSSVSASVGDRVTITCSASQGISGDLNWYQQKPGKAPKLLIYHTSQLHSDVPSRFSGSGSGTDFTLTISSLQPEDFATYYCQGYSKDLLTFGGGTKLEIK | 0.785 | 0.000436 | 555000 | 1.21 | 0.000536 | 444000 | – | – | – | – | – | – | – | – | – | – | – | –
4 | LKK631 (antibody, human IgG1, V domains shown) VH: EVQLQQFGAEVVKPGASVKMSCKASGYTFTDYNMNWVKQSHEKSLEWIGDIHPKFHSTNYNQKFKGKATLTIDTSSSTAYMELRNLTSEDTAVYYCARVGNYVYFVMDYWGQGTSVTVSS VL: SIVMTQTPKFLLVSAGDRVTITCKASQSVSNDVAWYQQKPGQSPKLLIYYASNRYTGVPDRFSGSGYGTDFTFTISTVQAEDLAVYFCQQDYTSPWTFGGGTKLEIK | – | – | – | – | – | – | 82.1 | 81 | 72.4 | 71.4 | 71.5 | 65.6 | 69.5 | 58.7 | 55.1 | 42 | 44.5 | 41.1

More lines, in order of falling Kd [1], values ahead:

Row | Kd [1] [nM] | koff [1] [s⁻¹] | kon [1] [M⁻¹ s⁻¹] | Kd [2] [nM] | koff [2] [s⁻¹] | kon [2] [M⁻¹ s⁻¹] | % pSTAT3+ Jurkat cells, 0.1 nM rhIL-21 + 0 nM antibody [3] [%] | % pSTAT3+ Jurkat cells, 0.1 nM rhIL-21 + 0.1012 nM antibody [3] [%] | % pSTAT3+ Jurkat cells, 0.1 nM rhIL-21 + 0.1602 nM antibody [3] [%] | % pSTAT3+ Jurkat cells, 0.1 nM rhIL-21 + 0.2536 nM antibody [3] [%] | % pSTAT3+ Jurkat cells, 0.1 nM rhIL-21 + 0.4015 nM antibody [3] [%] | % pSTAT3+ Jurkat cells, 0.1 nM rhIL-21 + 0.6355 nM antibody [3] [%] | % pSTAT3+ Jurkat cells, 0.1 nM rhIL-21 + 1.006 nM antibody [3] [%] | % pSTAT3+ Jurkat cells, 0.1 nM rhIL-21 + 1.5925 nM antibody [3] [%] | % pSTAT3+ Jurkat cells, 0.1 nM rhIL-21 + 2.5209 nM antibody [3] [%] | % pSTAT3+ Jurkat cells, 0.1 nM rhIL-21 + 3.9906 nM antibody [3] [%] | % pSTAT3+ Jurkat cells, 0.1 nM rhIL-21 + 6.3171 nM antibody [3] [%] | % pSTAT3+ Jurkat cells, 0.1 nM rhIL-21 + 10 nM antibody [3] [%] | Binder
5 | 0.664 | 0.00026 | 391000 | 0.808 | 0.000336 | 416000 | – | – | – | – | – | – | – | – | – | – | – | – | YCF391 (antibody, human IgG1, V domains shown, human IgG1) VH: VQLVQSGAEVKKPGASVKVSCKASGYTFTNFYIHWVRQAPGQGLEWMGSTYPNYGITAYNQKFKDRVTMTVDTSTSTAYMELRSLRSDDTAVYYCARGYSYAMDYWGQGTTVTVSS VL: DIQMTQSPSSVSASVGDRVTITCSASQGISGDLNWYQQKPGKAPKLLIYHTSQLHSDVPSRFSGSGSGTDFTLTISSLQPEDFATYYCQGYSKDLLTFGGGTKLEIK
6 | 0.328 | 0.000182 | 555000 | 0.48 | 0.000208 | 434000 | – | – | – | – | – | – | – | – | – | – | – | – | QGA408 (antibody, human IgG1, V domains shown, human IgG1) VH: VQLVQSGAEVKKPGASVKVSCKASGYTFTNFYIHWVRQAPGQGLEWMGSIYPNYGITAFNQKFKDRVTMTVDTSTSTAYMELRSLRSDDTAVYYCARGYSYAMDYWGQGTTVTVSS VL: DIQMTQSPSSVSASVGDRVTITCSASQGISGDLNWYQQKPGKAPKLLIYHTSQLHSDVPSRFSGSGSGTDFTLTISSLQPEDFATYYCQGYSKDLLTFGGGTKLEIK
7 | 0.296 | 0.000176 | 592000 | 0.511 | 0.000187 | 365000 | – | – | – | – | – | – | – | – | – | – | – | – | ICW519 (antibody, human IgG1, V domains shown, human IgG1) VH: VQLVQSGAEVKKPGASVKVSCKASGYTFTNFYIHWVRQAPGQGLEWMGSIYPNYGITAYNQKFQDRVTMTVDTSTSTAYMELRSLRSDDTAVYYCARGYSYAMDYWGQGTTVTVSS VL: DIQMTQSPSSVSASVGDRVTITCSASQGISGDLNWYQQKPGKAPKLLIYHTSQLHSDVPSRFSGSGSGTDFTLTISSLQPEDFATYYCQGYSKDLLTFGGGTKLEIK
8 | 0.205 | 0.000101 | 493000 | 0.342 | 0.000117 | 344000 | – | – | – | – | – | – | – | – | – | – | – | – | ACH836 (antibody, human IgG1, V domains shown, human IgG1) VH: VQLVQSGAEVKKPGASVKVSCKASGYTFTNFYIHWVRQAPGQGLEWMGSIYPNYGITAYNQKFKDRVTMTVDTSTSTAYMELRSLRSDDTAVYYCARGYSYAMDYWGQGTTVTVSS VL: DIQMTQSPSSVSASVGDRVTITCSASQGASGDLNWYQQKPGKAPKLLIYHTSQLHSDVPSRFSGSGSGTDFTLTISSLQPEDFATYYCQGYSKDLLTFGGGTKLEIK
